Assay [1] relates to tauopathy in tau P301S mice. Briefly: rAAV9 stereotaxic injection into hippocampus of 5-month old tau P301S mice. It counts as in vivo. On the procedure: Cells were fixed with 4% paraformaldehyde for 15 min at room temperature and washed with 0.2% triton in TBS and blocked using 3% BSA with 0.1% triton x-100 for 1 hr, incubated with primary antibodies for overnight at 4° C. and fluorescently labeled secondary antibodies for 45 min at room temperature. For immunohistochemistry, mice were perfused with PBS and fixed with 4% paraformaldehyde. 25-micron sections were blocked using normal goat serum for 1 h and incubated with primary antibodies at 4° C. overnight, followed by secondary antibody incubation for 1 h at room temperature prior to mounting. Images were captured with the Olympus FV10i confocal microscope (Tokyo, Japan), and the immunoreactivities were quantified using the Image J software (National Institutes of Health, Bethesda, MD). Immunoreactivities were quantitated from every 12th serial section through an entire hippocampus. In ICC and IHC experiments, all comparison images were acquired with identical laser intensity, exposure time, and filter. Adjustments to the brightness/contrast were applied equally to all comparison images. Regions of interest were chosen randomly, and investigators were blinded to experimental conditions during image acquisition and quantification.
Brain homogenates and cultured cells were lysed with RIPA buffer (50 mM Tris pH 7.4, 150 mM NaCl, 2 mM ethlenediaminetetraacetic acid, 1% NP-40, 0.1% sodium dodecyl sulfate) plus protease and phosphatase inhibitors. Proteins were extracted and centrifuged at 15000 rpm for 15 min at 4° C., and RIPA insoluble fractions were lysed with 5% SDS with 1% β-mercaptoethanol, 50 mM Tris-HCl pH 6.8, 12.5 mM EDTA, 10% glycerol, and 0.02% bromophenol blue. Supernatants were used for western blot analysis. supernatants were used for western blot analysis. co-IP experiments were carried out from NP40 lysates or indicated buffers with preclearing with IgG beads followed by IP with IgG beads alone or IgG beads+indicated antibodies, extensive washing (5×) with the original buffer, and Western blotting on SDS-PAGE. […]

A further assay has as its target T1, HA-p62/GFP-p62 complex (Homo sapiens, UniProt Q13501).
T1 construct: #38277; host or cells: Hela-V5-tau cells
Briefly: PLA of HA-p62/GFP-p62 complex (p62 self-interaction). The assay is classed as cell-based. As to conditions: Hela-V5-tau cells. On the procedure:
Data are shown as box plots or mean±SEM.
Given the effects on p62 autophagy flux, whether β-arrestin2 physically interacts with p62 was tested. […] Given that β-arrestin2 oligomeric mutants, ΔIP6C and ΔIP6N, reduced tau aggregates by slowing tau turnover, next tested was whether β-arrestin2 ΔIP6C and ΔIP6N mutants affect p62 self-association by a proximity ligation assays (PLA) as well as co-IP. […] Recent studies have shown that purified recombinant p62 spontaneously forms globular oligomers (Zaffagnini G, et al. (2018) EMBO J 37(5)). To test whether β-arrestin2 can directly affect p62 oligomerization in vitro, purified recombinant p62, β-arrestin2, and p62 mixed with β-arrestin2 with atomic force microscopy were visualized. Recombinant p62 spontaneously formed visible globular particles between 5-100 nm in diameter (FIG. 5K), whereas only very few small β-arrestin2 particles were visible under identical conditions (FIG. 5K). […] Next tested was whether β-arrestin2 oligomerization is required for bafilomycin A-induced p62 puncta formation. As expected, GFP-p62 puncta were increased upon bafilomycin A treatment in control vector transfected cells (FIGS. 5M,5N).

In assay [2] the target is T2, βarrestin1/βarrestin2 hetero-oligomers (UniProt P29067+P49407).
T2 construct: expressed in transfected cells; host or cells: HeLa-V5-tau cells
Briefly: PLA for βarrestin1/βarrestin2 hetero-oligomers in HeLa-V5-tau cells. The assay is classed as cell-based. From the text: (§1) FIGS. 24A to 24D show β-arrestin2 oligomerization mutants impair β-arrestin1 homo-oligomers and β-arrestin1/β-arrestin2 hetero-oligomers. HeLa-V5-tau cells were co-transfected with vector control or β-arrestin2 oligomerization mutants (ΔIP6C or ΔIP6N) together with βarrestin1-GFP+βarrestin1-myc or βarrestin2-myc. Cells were then subjected to proximity ligation assay (PLA) using antibodies against GFP and mycto detect βarrestin1 homo-oligomers (FIGS. 24A,24B) and βarrestin1/βarrestin2 hetero-oligomers and DAPI staining (FIGS. 24C,24D) (puncta).

In assay [3] the target is T3, βarrestin1 homo-oligomers (Homo sapiens, UniProt P49407).
T3 construct: expressed in transfected cells; host or cells: HeLa-V5-tau cells
The assay can be described thus: PLA for βarrestin1 homo-oligomers in HeLa-V5-tau cells. It counts as cell-based.
Description: as §1

T2 sequence (P49407 whole entry): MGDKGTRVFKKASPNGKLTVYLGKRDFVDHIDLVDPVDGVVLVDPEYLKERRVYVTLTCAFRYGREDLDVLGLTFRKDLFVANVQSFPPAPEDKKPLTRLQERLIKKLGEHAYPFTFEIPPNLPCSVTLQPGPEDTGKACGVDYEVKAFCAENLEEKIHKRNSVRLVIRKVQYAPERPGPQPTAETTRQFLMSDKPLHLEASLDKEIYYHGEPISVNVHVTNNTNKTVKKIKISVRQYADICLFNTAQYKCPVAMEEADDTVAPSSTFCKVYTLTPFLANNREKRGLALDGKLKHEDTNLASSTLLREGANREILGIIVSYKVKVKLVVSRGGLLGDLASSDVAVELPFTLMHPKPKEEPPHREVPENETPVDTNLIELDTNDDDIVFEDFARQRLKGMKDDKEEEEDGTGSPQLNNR
T2 sequence (P29067 whole entry): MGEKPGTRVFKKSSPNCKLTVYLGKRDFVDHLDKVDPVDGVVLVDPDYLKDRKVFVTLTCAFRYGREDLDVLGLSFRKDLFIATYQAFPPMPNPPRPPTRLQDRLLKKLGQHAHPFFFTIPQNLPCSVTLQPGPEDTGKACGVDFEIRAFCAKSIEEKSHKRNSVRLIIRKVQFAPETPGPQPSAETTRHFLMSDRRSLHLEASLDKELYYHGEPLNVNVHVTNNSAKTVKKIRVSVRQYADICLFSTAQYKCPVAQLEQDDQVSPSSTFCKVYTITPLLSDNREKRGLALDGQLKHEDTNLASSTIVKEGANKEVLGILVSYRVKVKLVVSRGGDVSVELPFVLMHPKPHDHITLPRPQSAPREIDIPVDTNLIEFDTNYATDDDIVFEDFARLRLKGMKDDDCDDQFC
T3 sequence (P49407 whole entry): as the sequence (P49407 whole entry) above
T3 sequence (P49407 whole entry): as above

B1: β-arrestin2 ΔIP6N: β-arrestin2 N-terminal domain mutant (K158A, K161A, and R162A), incapable of forming oligomers; dominant negative (protein, UniProt P32121 1-409, looked up, variant K158A K161A R162A)
Beta-arrestin-2: MGEKPGTRVFKKSSPNCKLTVYLGKRDFVDHLDKVDPVDGVVLVDPDYLKDRKVFVTLTCAFRYGREDLDVLGLSFRKDLFIATYQAFPPVPNPPRPPTRLQDRLLRKLGQHAHPFFFTIPQNLPCSVTLQPGPEDTGKACGVDFEIRAFCAKSLEEASHAANSVRLVIRKVQFAPEKPGPQPSAETTRHFLMSDRSLHLEASLDKELYYHGEPLNVNVHVTNNSTKTVKKIKVSVRQYADICLFSTAQYKCPVAQLEQDDQVSPSSTFCKVYTITPLLSDNREKRGLALDGKLKHEDTNLASSTIVKEGANKEVLGILVSYRVKVKLVVSRGGDVSVELPFVLMHPKPHDHIPLPRPQSAAPETDVPVDTNLIEFDTNYATDDDIVFEDFARLRLKGMKDDDYDDQLC
modifications: GFP or YFP tag
notes: dominant negative
As for B1, the “tau levels in individual brain cells with verified expression” value in assay [1] (cells verified by GFP tags) was “essentially undetectable”. In assay [1] (expressing neurons vs GFP-expressing control or non-infected neurons), the HT7-immunoreactive tau entry was “significant reductions”. Also, the sarkosyl-insoluble tau result in assay [1] (tau P301S mice, two months post injection, vs GFP control) is on record as “markedly reduced”. The “HA-p62/GFP-p62 PLA puncta (p62 self-interaction)” value in the assay with HA-p62/GFP-p62 complex is recorded as “neither β-arrestin2 ΔIP6C nor β-arrestin2 ΔIP6N reduced HA-p62/GFP-p62 PLA puncta”. Besides, in assay [2], the “βarrestin1/βarrestin2 hetero-oligomers (PLA puncta)” value is reported as “significantly reduce”. For the same molecule, the “βarrestin1 homo-oligomers (PLA puncta)” value in assay [3] is “significantly reduce”.

The record behind these values is patent publication US11896644B2, “Inhibition of beta-arrestin oligomerization in tauopathy” (UNIVERSITY OF SOUTH FLORIDA, priority 2020, dated 2024).
